# Measurements reported in the supplement of paper PMC6757056.
# ± gives the standard deviation of the averaged measurements.
# B1: library; a variant is named by its letters at N, in order (parent)
# chain: GCUGUCACCGGUGUAUUACCCUAGUGGUCGACCGGUCUGAUGAGUCUNNNNNNAGACGAAACAGC
# Key:
# hypoxanthine [1] = variants of: B1; test: FACS-Seq fitted mean relative fluorescence mCherry/BFP without ligand (log10 relative fluorescence); ligand: hypoxanthine (xanthine aptamer); higher = higher reporter protein expression; settings: HEK293T, ligand present: no
# Summary of the method: (§1)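 To measure fluorescence, a normal distribution was fitted to read counts across sorted bins. The reporter libraries were HEK293T cells transduced by lentivirus with mCherry under ribozyme-switch control and an EF1α-BFP marker, enriched and then kept with or without ligand for 48 h. Sorting used 6 mCherry/BFP bins, and bin genomic DNA was PCR-amplified and sequenced on MiSeq. Fitted means of log10(mCherry/BFP) were scaled to five spiked-in control ribozymes.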
# hypoxanthine [2] = variants of: B1; test: normalized RNA/DNA level with ligand (relative to sTRSVctl = 100) (log10 (% of sTRSVctl)); ligand: hypoxanthine (xanthine aptamer); higher = less ribozyme self-cleavage, higher mRNA level; settings: ligand concentration (+) RNA-Seq: 5 mM, HEK293T, reporter: mCherry (pCS4076), ligand present: yes
# Summary of the method: (§2)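 Total RNA, extracted with EDTA 72 h after HEK293T cells were transfected with 4 µg per 6-well well of reporter-linked ribozyme switch library plasmids, was reverse-transcribed, amplified, barcoded and sequenced. Ligand, if used, was added 1 h before transfection. RNA level was derived from RNA reads divided by DNA reads and normalized to a spiked-in non-cleaving sequence or to the top sequences. This was multiplied by 100 and log10-transformed, with the top set of 25 sequences and a ≥100 DNA read minimum.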
# hypoxanthine [3] = variants of: B1; test: normalized RNA/DNA level without ligand (relative to sTRSVctl = 100) (log10 (% of sTRSVctl)); ligand: hypoxanthine (xanthine aptamer); higher = less ribozyme self-cleavage, higher mRNA level; settings: HEK293T, reporter: mCherry (pCS4076), ligand present: no
# Summary of the method: as §2
# hypoxanthine [4] = variants of: B1; test: FACS-Seq fitted mean relative fluorescence mCherry/BFP with ligand (log10 relative fluorescence); ligand: hypoxanthine (xanthine aptamer); ligand concentration (+) FACS-Seq: 5 mM; higher = higher reporter protein expression; settings: HEK293T, ligand present: yes
# Summary of the method: as §1
Variant,FACS-Seq fitted mean (log10) (hypoxanthine [1]),normalized RNA/DNA level with ligand (log10) (hypoxanthine [2]),normalized RNA/DNA level without ligand (log10) (hypoxanthine [3]),FACS-Seq fitted mean (log10) (hypoxanthine [4])
AGAUGU,0.466 ± 0.021,1.9 ± 0.037,1.56 ± 0.031,0.748 ± 0.053
GGAGAG,0.274 ± 0.052,1.81 ± 0.058,1.3 ± 0.017,0.507 ± 0.023
GGAGAC,-0.358 ± 0.15,1.86 ± 0.066,1.75 ± 0.086,0.13 ± 0.024
GGAGAA,0.538 ± 0.019,1.92 ± 0.022,1.68 ± 0.053,0.643 ± 0.034
CGAUAA,0.668 ± 0.13,1.86 ± 0.047,1.57 ± 0.022,0.637 ± 0.12
CGAUAC,-0.0585 ± 0.029,1.894 ± 0.0067,1.69 ± 0.019,0.176 ± 0.056
CGAUAG,0.613 ± 0.0027,1.86 ± 0.12,1.7 ± 0.063,0.639 ± 0.052
UGAGUG,0.274 ± 0.026,1.9 ± 0.0079,1.64 ± 0.047,0.263 ± 0.019
UGAGUC,0.177 ± 0.08,1.99 ± 0.004,1.97 ± 0.025,-0.0516 ± 0.012
AGCAAC,0.133 ± 0.046,1.91 ± 0.054,1.79 ± 0.043,0.1066 ± 0.00061
AGCAAU,0.645 ± 0.018,1.9127 ± 0.00078,1.8332 ± 0.00014,0.608 ± 0.03
AGCAAG,0.616 ± 0.025,1.81 ± 0.024,1.45 ± 0.056,0.87 ± 0.096
AGAACG,0.48 ± 0.04,1.833 ± 0.015,1.436 ± 0.0026,0.756 ± 0.08
AGAACC,0.228 ± 0.048,1.937 ± 0.014,1.87 ± 0.022,0.264 ± 0.055
CGACAC,-0.0307 ± 0.0086,1.938 ± 0.0063,1.75 ± 0.039,0.154 ± 0.057
GGAGUC,0.764 ± 0.047,1.93 ± 0.042,1.885 ± 0.014,0.567 ± 0.047
GGAGUG,0.301 ± 0.025,1.85 ± 0.027,1.413 ± 0.014,0.7 ± 0.032
GGCCGU,0.465 ± 0.071,1.95 ± 0.034,1.945 ± 0.014,0.502 ± 0.0071

Variant,FACS-Seq fitted mean (log10) (hypoxanthine [1]),normalized RNA/DNA level with ligand (log10) (hypoxanthine [2]),normalized RNA/DNA level without ligand (log10) (hypoxanthine [3]),FACS-Seq fitted mean (log10) (hypoxanthine [4])
GGAAGG,-0.0545 ± 0.055,1.81 ± 0.03,1.29 ± 0.068,0.241 ± 0.04
GGAAGC,0.167 ± 0.013,1.77 ± 0.033,1.297 ± 0.0033,0.358 ± 0.042
GGAAGA,0.0989 ± 0.032,1.89 ± 0.045,1.45 ± 0.032,0.576 ± 0.039
AGAAGG,0.227 ± 0.0085,1.85 ± 0.051,1.42 ± 0.044,0.463 ± 0.011
AGAAGA,0.156 ± 0.021,1.92 ± 0.029,1.525 ± 0.013,0.466 ± 0.016
UGAGCU,0.136 ± 0.16,1.918 ± 0.018,1.904 ± 0.017,-0.0419 ± 0.064
UGAGCG,0.3069 ± 0.0029,1.9 ± 0.049,1.7 ± 0.043,0.323 ± 0.026
UGAGCC,0.846 ± 0.017,2.003 ± 0.02,1.94 ± 0.051,0.805 ± 0.11
AGAGCG,0.488 ± 0.026,1.81 ± 0.024,1.401 ± 0.002,0.431 ± 0.067
AGAUAC,0.757 ± 0.025,1.91 ± 0.052,1.74 ± 0.029,0.699 ± 0.065
AGAUAA,0.265 ± 0.036,1.88 ± 0.022,1.75 ± 0.042,-0.0706 ± 0.047
GGAGCA,0.654 ± 0.037,1.946 ± 0.0077,1.783 ± 0.0088,0.686 ± 0.1
GGAGCG,0.171 ± 0.034,1.93 ± 0.043,1.49 ± 0.04,0.456 ± 0.023
GGAGCU,0.211 ± 0.041,1.956 ± 0.0072,1.96 ± 0.044,-0.117 ± 0.033
CGAUUA,0.312 ± 0.038,1.9239 ± 0.001,1.64 ± 0.034,0.569 ± 0.13
CGAUUC,0.279 ± 0.048,1.976 ± 0.0063,1.89 ± 0.02,0.313 ± 0.0095
CGAUUU,0.4582 ± 0.0022,1.92 ± 0.089,1.847 ± 0.012,0.5218 ± 0.0046
AGCAGG,0.0745 ± 0.0069,1.83 ± 0.055,1.396 ± 0.0059,0.533 ± 0.079
